In patent US20020115167:

Molecular target: T1, Dishevelled (Dsh) protein, Drosophila, P51140
T1 chain: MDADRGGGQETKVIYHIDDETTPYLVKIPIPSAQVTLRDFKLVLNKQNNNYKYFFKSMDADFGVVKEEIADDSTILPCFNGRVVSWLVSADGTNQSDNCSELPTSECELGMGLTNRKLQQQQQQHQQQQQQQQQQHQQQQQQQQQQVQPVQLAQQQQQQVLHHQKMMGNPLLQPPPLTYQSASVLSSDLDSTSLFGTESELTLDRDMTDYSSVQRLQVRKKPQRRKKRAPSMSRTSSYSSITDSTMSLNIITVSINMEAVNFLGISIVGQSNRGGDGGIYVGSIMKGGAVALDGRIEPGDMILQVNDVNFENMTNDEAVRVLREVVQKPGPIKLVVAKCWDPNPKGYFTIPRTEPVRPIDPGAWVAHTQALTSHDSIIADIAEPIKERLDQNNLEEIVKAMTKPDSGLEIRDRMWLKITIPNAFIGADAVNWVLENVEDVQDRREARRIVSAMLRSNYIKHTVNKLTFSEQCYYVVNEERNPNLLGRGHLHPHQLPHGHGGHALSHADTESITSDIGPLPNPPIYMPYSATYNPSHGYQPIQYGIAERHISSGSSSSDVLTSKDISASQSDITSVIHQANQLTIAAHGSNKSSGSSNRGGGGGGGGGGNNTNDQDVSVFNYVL

B1: Drosophila PAR-1 (dPAR-1), the Dishevelled-associated kinase (protein)
chain: MSTAMRTTLQSVPEALPADSVSNGTASNVAAPAAPVSSATNAVPPLAAVSSTTATYATNSISTSSHSVKDQQQQQQQQQHDSANANIVSLPPTTTPVANTNTMMPIVTSSNSATSNSTAATPTPASGAAATGGVGSVSQGPATVSASAANTNHSHQHSHQHHHHVANNMTTDGARLSSNNSAVVASSAINHHHHHTPGSGVAPTVNKNVLSTHSAHPSAIKQRTSSAKGSPNMQMRSSAPMRWRATEEHIGKYKLIKTIGKGNFAKVKLAKHLPTGKEVAIKIIDKTQLNPGSLQKLFREVRIMKMLDHPNIVKLFQVIETEKTLYLIMEYASGGEVFDYLVLHGRMKEKEARVKFRQIVSAVQYCHQKRIIHRDLKAENLLLDSELNIKIADFGFSNEFTPGSKLDTFCGSPPYAAPELFQGKKYDGPEVDVWSLGVILYTLVSGSLPFDGSTLRELRERVLRGKYRIPFYMSTDCENLLRKFLVLNPAKRASLETIMGDKWMNMGFEEDELKPYIEPKADLADPKRIEALVAMGYNRSEIEASLSQVRYDDVFATYLLLGRKSTDPESDGSRSGSSLSLRNISGNDAGANAGSASVQSPTHRGVHRSISASSTKPSRRASSGAETLRVGPTNAAATVAAATGAVGAVNPSNNYNAAGSAADRASVGSNFKRQNTIDSATIKENTARLAAQNQRPASATQKMLTTADTTLNSPAKPRTATKYDPTNGNRTVSGTSGIIPRRSTTLYEKTSSTEKTNVIPAETKMASAVKSSRHFPRNVPSRSTFHSGQTRARNNTALEYSGTSGASGDSSHPGRMSFFSKLSSRFSKRPNQ
in-gel in vitro kinase assay: these bands phosphorylated the Dsh substrate impregnated in the gel
